Paper PMC3581401 (The Journal of Biological Chemistry, 2013)
Like-named read-outs stand apart in the source and are kept apart here.

Tests used:
[1] = biological target: ICAM-1 domains 1 to 5 fused to human IgG1 Fc (human) (UniProt P05362); assay: SPR
[2] = biological target: ICAM-1 domains 1 to 5, Fc tag removed (human) (UniProt P05362); assay: AUC
[3] = biological target: T1, ICAM-1 domains 1 to 5 fused to human IgG1 Fc (human, UniProt P05362 28-485); assay: SPR
[4] = biological target: the molecule itself; assay: AUC
[5] = biological target: ICAM-1 domains 1 to 5, Fc tag removed (human, UniProt P05362 28-485); assay: AUC
Sequence of ICAM-1 domains 1 to 5, Fc tag removed (P05362 28-485): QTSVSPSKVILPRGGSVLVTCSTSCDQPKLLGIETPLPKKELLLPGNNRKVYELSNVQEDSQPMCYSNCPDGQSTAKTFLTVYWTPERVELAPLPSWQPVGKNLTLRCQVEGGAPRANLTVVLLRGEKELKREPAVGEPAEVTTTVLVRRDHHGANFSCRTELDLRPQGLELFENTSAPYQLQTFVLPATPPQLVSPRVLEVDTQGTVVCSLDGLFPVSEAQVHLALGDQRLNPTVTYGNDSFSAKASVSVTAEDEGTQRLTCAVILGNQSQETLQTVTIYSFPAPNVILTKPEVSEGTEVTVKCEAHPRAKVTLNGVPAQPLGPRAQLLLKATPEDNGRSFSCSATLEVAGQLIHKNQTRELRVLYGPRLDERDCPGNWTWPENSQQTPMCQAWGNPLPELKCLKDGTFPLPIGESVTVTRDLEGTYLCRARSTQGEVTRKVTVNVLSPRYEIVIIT

[6] = biological target: T1, ICAM-1 domains 1 to 5 fused to human …; assay: SPR; remark: listed apart in the source
[7] = biological target: T1, ICAM-1 domains 1 to 5 fused to human …; assay: SPR; remark: listed apart in the source
[8] = biological target: ICAM-1 domains 1 and 2 (human, UniProt P05362 28-212); assay: SAXS
Sequence of ICAM-1 domains 1 and 2 (P05362 28-212): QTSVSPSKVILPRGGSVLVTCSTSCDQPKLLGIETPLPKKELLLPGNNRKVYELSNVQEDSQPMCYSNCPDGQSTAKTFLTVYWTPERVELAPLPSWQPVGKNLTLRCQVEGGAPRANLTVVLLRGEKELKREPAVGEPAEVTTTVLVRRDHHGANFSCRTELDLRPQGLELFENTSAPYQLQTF

T1 sequence (P05362 28-485): as the sequence (P05362 28-485) above
Sequence of ICAM-1 domains 1 to 5 fused to human IgG1 Fc (human) (P05362 28-485): as above
Sequence of ICAM-1 domains 1 to 5, Fc tag removed (human) (P05362 28-485): as above

Row | Molecule | stoichiometry N [1] | Kd [1] [nM] | koff [1] [s⁻¹] | kon [1] [M⁻¹ s⁻¹] | further results
1 | IT4VAR13 ectodomain (PfEMP1 from the var13 gene of the P. falciparum IT4 isolate), A3R6S0 1-2691 | 1 |  |  |  | stoichiometry N [2]: 1
2 | IT4VAR16 DBLβ domain (domain or fragment) |  | 51.1 | 0.00208 | 41000 | 
3 | IT4VAR27 DBLβ domain (domain or fragment) |  | 6.5 | 0.00842 | 130000 | 
4 | IT4VAR31 DBLβ domain (domain or fragment) |  | 144 | 0.00145 |  | 
5 | IT4VAR41 DBLβ domain (domain or fragment) | 1.09 |  | 0.00831 |  | 
6 | IT4VAR13 DBLβ domain (domain or fragment, Plasmodium falciparum (IT4 isolate), UniProt A3R6S0 811-1201, looked up) ACTGKDGNNERFKIGTEWKIGEKVETTDTDAYIPPRRQHMCTSNLENLNVSWVTEDGKAIHSLLGDVQLAAKMDADEIIKRYKKHNTLTDPIQQKDQESICRAVRYSFADLGDIIRGRDLWEHGDQTKLQGHLQIIFGKIKEEIKKKHPGINGNDKYKGDEKNNPPYKQLREDWWEANRHQVWRAMQCELKNLKKSNGDCHYNSRGTPLDDYIPQRLRWMVEWAEWFCKMQSQEYDKLMKQCSQCMSKGGDCRKGDVNCTSCEQACEEYKKKIKKWEKQWNKIKDKYEELYLQAKIAFAGTSFGGGDRDYQQMVHFFKELQKVTGDTTLGDTTSPYSTAAGYIHQEGHVDECTEQTQFCKNRNGNTASGKEDDNYTFKDPPPKYANACKCD |  |  |  |  | kon [3]: 35000 M⁻¹ s⁻¹; stoichiometry N [3]: 1.16; stoichiometry N [4]: 2; stoichiometry N [5]: 1; Kd [6]: 2.6 nM; koff [6]: 0.0009 s⁻¹; kon [6]: 350000 M⁻¹ s⁻¹; Kd [7]: 2.8 nM; stoichiometry N [8]: 1
